# According to EP4745153A1, “GLP-1, GIP AND GCG RECEPTOR […] USE THEREOF” (Jiangsu Hengrui Pharmaceuticals Co., Ltd., priority 2023, dated 2025):
# Read-outs that look alike come from different tables or passages of the source. Starred links: 1 amine or outer side, 2 acyl side, 3 side chain; linkers in the order of their positions; H or OH if unused. Non-standard residues stand in square brackets, D forms with d. Groups on a side chain read outwards from the residue. No end group written: not given here. *: point of attachment. C20 diacid = O=C(O)CCCCCCCCCCCCCCCCCCC(=O)*; γGlu = O=C(O)[C@H](CCC(=O)[*:2])N[*:1]; αMeL = CC(C)C[C@](C)(N)C(=O)O; AEEA = NCCOCCOCC(=O)O; Aib = CC(C)(N)C(=O)O
# T1: human glucose-dependent insulinotropic polypeptide receptor (human, UniProt P48546 22-466)
# T1 sequence (looked up): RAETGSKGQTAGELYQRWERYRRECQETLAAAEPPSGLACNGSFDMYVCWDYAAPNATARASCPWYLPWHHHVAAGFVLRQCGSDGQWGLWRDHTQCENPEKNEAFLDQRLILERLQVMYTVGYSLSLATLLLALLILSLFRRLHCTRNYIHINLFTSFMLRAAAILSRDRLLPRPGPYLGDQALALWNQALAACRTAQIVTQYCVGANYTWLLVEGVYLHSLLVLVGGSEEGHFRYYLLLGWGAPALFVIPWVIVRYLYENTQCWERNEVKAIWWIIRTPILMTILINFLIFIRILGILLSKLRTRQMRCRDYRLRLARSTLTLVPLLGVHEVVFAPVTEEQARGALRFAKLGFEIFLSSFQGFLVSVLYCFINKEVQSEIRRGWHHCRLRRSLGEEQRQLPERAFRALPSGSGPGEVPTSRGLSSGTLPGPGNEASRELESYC
# B1: Compound No. 0153 (peptide)
# peptide: H[Aib]HGTFTSDYSILLEK([AEEA-AEEA-γGlu-C20 diacid])QAAQEFVEWLLA[dE]GPSSGAPPPS-NH2
# modifications: N-terminus assumed
# SMILES: CC[C@H](C)[C@H](NC(=O)[C@H](CO)NC(=O)[C@H](Cc1ccc(O)cc1)NC(=O)[C@H](CC(=O)O)NC(=O)[C@H](CO)NC(=O)[C@@H](NC(=O)[C@H](Cc1ccccc1)NC(=O)[C@@H](NC(=O)CNC(=O)[C@H](Cc1c[nH]cn1)NC(=O)C(C)(C)NC(=O)[C@@H](N)Cc1c[nH]cn1)[C@@H](C)O)[C@@H](C)O)C(=O)N[C@@H](CC(C)C)C(=O)N[C@@H](CC(C)C)C(=O)N[C@@H](CCC(=O)O)C(=O)N[C@@H](CCCCNC(=O)COCCOCCNC(=O)COCCOCCNC(=O)CC[C@H](NC(=O)CCCCCCCCCCCCCCCCCCC(=O)O)C(=O)O)C(=O)N[C@@H](CCC(N)=O)C(=O)N[C@@H](C)C(=O)N[C@@H](C)C(=O)N[C@@H](CCC(N)=O)C(=O)N[C@@H](CCC(=O)O)C(=O)N[C@@H](Cc1ccccc1)C(=O)N[C@H](C(=O)N[C@@H](CCC(=O)O)C(=O)N[C@@H](Cc1c[nH]c2ccccc12)C(=O)N[C@@H](CC(C)C)C(=O)N[C@@H](CC(C)C)C(=O)N[C@@H](C)C(=O)N[C@H](CCC(=O)O)C(=O)NCC(=O)N1CCC[C@H]1C(=O)N[C@@H](CO)C(=O)N[C@@H](CO)C(=O)NCC(=O)N[C@@H](C)C(=O)N1CCC[C@H]1C(=O)N1CCC[C@H]1C(=O)N1CCC[C@H]1C(=O)N[C@@H](CO)C(N)=O)C(C)C
# B2: Compound No. 0152 (peptide)
# peptide: H[Aib]HGTFTSDYSILLEK([AEEA-AEEA-γGlu-C20 diacid])QAAQEFVEWLLAGGPSSGAPPPS-NH2
# modifications: N-terminus assumed
# SMILES: CC[C@H](C)[C@H](NC(=O)[C@H](CO)NC(=O)[C@H](Cc1ccc(O)cc1)NC(=O)[C@H](CC(=O)O)NC(=O)[C@H](CO)NC(=O)[C@@H](NC(=O)[C@H](Cc1ccccc1)NC(=O)[C@@H](NC(=O)CNC(=O)[C@H](Cc1c[nH]cn1)NC(=O)C(C)(C)NC(=O)[C@@H](N)Cc1c[nH]cn1)[C@@H](C)O)[C@@H](C)O)C(=O)N[C@@H](CC(C)C)C(=O)N[C@@H](CC(C)C)C(=O)N[C@@H](CCC(=O)O)C(=O)N[C@@H](CCCCNC(=O)COCCOCCNC(=O)COCCOCCNC(=O)CC[C@H](NC(=O)CCCCCCCCCCCCCCCCCCC(=O)O)C(=O)O)C(=O)N[C@@H](CCC(N)=O)C(=O)N[C@@H](C)C(=O)N[C@@H](C)C(=O)N[C@@H](CCC(N)=O)C(=O)N[C@@H](CCC(=O)O)C(=O)N[C@@H](Cc1ccccc1)C(=O)N[C@H](C(=O)N[C@@H](CCC(=O)O)C(=O)N[C@@H](Cc1c[nH]c2ccccc12)C(=O)N[C@@H](CC(C)C)C(=O)N[C@@H](CC(C)C)C(=O)N[C@@H](C)C(=O)NCC(=O)NCC(=O)N1CCC[C@H]1C(=O)N[C@@H](CO)C(=O)N[C@@H](CO)C(=O)NCC(=O)N[C@@H](C)C(=O)N1CCC[C@H]1C(=O)N1CCC[C@H]1C(=O)N1CCC[C@H]1C(=O)N[C@@H](CO)C(N)=O)C(C)C
# B3: Compound No. 0142 (peptide)
# peptide: H[Aib]HGTFTSDLSI[αMeL]LEK([AEEA-AEEA-γGlu-C20 diacid])KAAQEFVEWLLA[dE]GPSSGAPPPS-NH2
# modifications: N-terminus assumed
# SMILES: CC[C@H](C)[C@H](NC(=O)[C@H](CO)NC(=O)[C@H](CC(C)C)NC(=O)[C@H](CC(=O)O)NC(=O)[C@H](CO)NC(=O)[C@@H](NC(=O)[C@H](Cc1ccccc1)NC(=O)[C@@H](NC(=O)CNC(=O)[C@H](Cc1c[nH]cn1)NC(=O)C(C)(C)NC(=O)[C@@H](N)Cc1c[nH]cn1)[C@@H](C)O)[C@@H](C)O)C(=O)N[C@@](C)(CC(C)C)C(=O)N[C@@H](CC(C)C)C(=O)N[C@@H](CCC(=O)O)C(=O)N[C@@H](CCCCNC(=O)COCCOCCNC(=O)COCCOCCNC(=O)CC[C@H](NC(=O)CCCCCCCCCCCCCCCCCCC(=O)O)C(=O)O)C(=O)N[C@@H](CCCCN)C(=O)N[C@@H](C)C(=O)N[C@@H](C)C(=O)N[C@@H](CCC(N)=O)C(=O)N[C@@H](CCC(=O)O)C(=O)N[C@@H](Cc1ccccc1)C(=O)N[C@H](C(=O)N[C@@H](CCC(=O)O)C(=O)N[C@@H](Cc1c[nH]c2ccccc12)C(=O)N[C@@H](CC(C)C)C(=O)N[C@@H](CC(C)C)C(=O)N[C@@H](C)C(=O)N[C@H](CCC(=O)O)C(=O)NCC(=O)N1CCC[C@H]1C(=O)N[C@@H](CO)C(=O)N[C@@H](CO)C(=O)NCC(=O)N[C@@H](C)C(=O)N1CCC[C@H]1C(=O)N1CCC[C@H]1C(=O)N1CCC[C@H]1C(=O)N[C@@H](CO)C(N)=O)C(C)C
# B4: Compound No. 0143 (peptide)
# peptide: H[Aib]HGTFTSDLSI[αMeL]LEK([AEEA-AEEA-γGlu-C20 diacid])KAAQEFVEWLLAGGPSSGAPPPS-NH2
# modifications: N-terminus assumed
# SMILES: CC[C@H](C)[C@H](NC(=O)[C@H](CO)NC(=O)[C@H](CC(C)C)NC(=O)[C@H](CC(=O)O)NC(=O)[C@H](CO)NC(=O)[C@@H](NC(=O)[C@H](Cc1ccccc1)NC(=O)[C@@H](NC(=O)CNC(=O)[C@H](Cc1c[nH]cn1)NC(=O)C(C)(C)NC(=O)[C@@H](N)Cc1c[nH]cn1)[C@@H](C)O)[C@@H](C)O)C(=O)N[C@@](C)(CC(C)C)C(=O)N[C@@H](CC(C)C)C(=O)N[C@@H](CCC(=O)O)C(=O)N[C@@H](CCCCNC(=O)COCCOCCNC(=O)COCCOCCNC(=O)CC[C@H](NC(=O)CCCCCCCCCCCCCCCCCCC(=O)O)C(=O)O)C(=O)N[C@@H](CCCCN)C(=O)N[C@@H](C)C(=O)N[C@@H](C)C(=O)N[C@@H](CCC(N)=O)C(=O)N[C@@H](CCC(=O)O)C(=O)N[C@@H](Cc1ccccc1)C(=O)N[C@H](C(=O)N[C@@H](CCC(=O)O)C(=O)N[C@@H](Cc1c[nH]c2ccccc12)C(=O)N[C@@H](CC(C)C)C(=O)N[C@@H](CC(C)C)C(=O)N[C@@H](C)C(=O)NCC(=O)NCC(=O)N1CCC[C@H]1C(=O)N[C@@H](CO)C(=O)N[C@@H](CO)C(=O)NCC(=O)N[C@@H](C)C(=O)N1CCC[C@H]1C(=O)N1CCC[C@H]1C(=O)N1CCC[C@H]1C(=O)N[C@@H](CO)C(N)=O)C(C)C
# B5: Compound No. 0154 (peptide)
# peptide: H[Aib]QGTFTSDYSILLEK([AEEA-AEEA-γGlu-C20 diacid])KAAQEFVEWLLAGGPSSGAPPPS-NH2
# modifications: N-terminus assumed
# SMILES: CC[C@H](C)[C@H](NC(=O)[C@H](CO)NC(=O)[C@H](Cc1ccc(O)cc1)NC(=O)[C@H](CC(=O)O)NC(=O)[C@H](CO)NC(=O)[C@@H](NC(=O)[C@H](Cc1ccccc1)NC(=O)[C@@H](NC(=O)CNC(=O)[C@H](CCC(N)=O)NC(=O)C(C)(C)NC(=O)[C@@H](N)Cc1c[nH]cn1)[C@@H](C)O)[C@@H](C)O)C(=O)N[C@@H](CC(C)C)C(=O)N[C@@H](CC(C)C)C(=O)N[C@@H](CCC(=O)O)C(=O)N[C@@H](CCCCNC(=O)COCCOCCNC(=O)COCCOCCNC(=O)CC[C@H](NC(=O)CCCCCCCCCCCCCCCCCCC(=O)O)C(=O)O)C(=O)N[C@@H](CCCCN)C(=O)N[C@@H](C)C(=O)N[C@@H](C)C(=O)N[C@@H](CCC(N)=O)C(=O)N[C@@H](CCC(=O)O)C(=O)N[C@@H](Cc1ccccc1)C(=O)N[C@H](C(=O)N[C@@H](CCC(=O)O)C(=O)N[C@@H](Cc1c[nH]c2ccccc12)C(=O)N[C@@H](CC(C)C)C(=O)N[C@@H](CC(C)C)C(=O)N[C@@H](C)C(=O)NCC(=O)NCC(=O)N1CCC[C@H]1C(=O)N[C@@H](CO)C(=O)N[C@@H](CO)C(=O)NCC(=O)N[C@@H](C)C(=O)N1CCC[C@H]1C(=O)N1CCC[C@H]1C(=O)N1CCC[C@H]1C(=O)N[C@@H](CO)C(N)=O)C(C)C
# B6: Compound No. 0144 (peptide)
# peptide: H[Aib]HGTFTSDLSILLEK([AEEA-AEEA-γGlu-C20 diacid])KAAQEFVEWLLA[dE]GPSSGAPPPS-NH2
# Columns and labels:
# Assay in all cases: cell-based or functional assay
# human glucagon receptor [1] = biological target: T2, human glucagon receptor (human, UniProt P47871 26-477)
# T2 sequence (P47871 26-477): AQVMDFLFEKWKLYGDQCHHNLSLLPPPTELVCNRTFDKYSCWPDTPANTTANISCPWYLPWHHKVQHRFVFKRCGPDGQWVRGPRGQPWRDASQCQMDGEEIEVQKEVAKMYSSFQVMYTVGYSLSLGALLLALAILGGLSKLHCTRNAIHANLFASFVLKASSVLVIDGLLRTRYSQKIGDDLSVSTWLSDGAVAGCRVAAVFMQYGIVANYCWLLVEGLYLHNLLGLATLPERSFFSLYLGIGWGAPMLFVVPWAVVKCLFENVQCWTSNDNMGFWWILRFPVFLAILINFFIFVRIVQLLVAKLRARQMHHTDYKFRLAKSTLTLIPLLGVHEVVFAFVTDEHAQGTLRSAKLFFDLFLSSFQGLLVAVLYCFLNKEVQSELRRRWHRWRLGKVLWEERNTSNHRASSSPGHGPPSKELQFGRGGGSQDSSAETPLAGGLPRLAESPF
# [2] = biological target: T1, human glucose-dependent insulinotropic …
# [3] = biological target: T3, human glucagon-like peptide-1 receptor (human, UniProt P43220 24-463)
# human glucagon receptor [4] = biological target: T2, human glucagon receptor; remark: listed apart in the source
# [5] = biological target: T1, human glucose-dependent insulinotropic …; remark: listed apart in the source
# [6] = biological target: T3, human glucagon-like peptide-1 receptor; remark: listed apart in the source
Binder,Activity against human GCGR (EC50 nM) (human glucagon receptor [1]) [nM],Activity against human GIPR (EC50 nM) [2] [nM],Activity against human GLP-1R (EC50 nM) [3] [nM],Activity against human GCGR (EC50 nM) (human glucagon receptor [4]) [nM],Activity against human GIPR (EC50 nM) [5] [nM],Activity against human GLP-1R (EC50 nM) [6] [nM]
B1,0.334,0.01,0.051,,,
B2,0.29,0.009,0.054,,,
B3,,,,0.49,0.007,0.058
B4,,,,0.423,0.004,0.09
B5,1.62,0.031,0.033,,,
B6,,,,0.311,0.012,0.035
